Reference: patent EP0488317A2

Molecular target: Bovine thrombin (bovine) (UniProt P00735)
Experiment: cell-based or functional assay

Substance r-UTM (from UniProt P07204 19-486) has a Coagulation time, substance 17 nM, bovine fibrinogen 1 mg/ml, bovine thrombin 18 nM; control 28.1 sec of 29.6 s, an IC50 of inhibition of coagulation of bovine fibrinogen (1 mg/ml) by bovine thrombin (18 nM) of 80 nM and a clotting time, human fibrinogen 2.5 mg/ml, bovine thrombin 0.5 U/ml, ATIII (+) (human antithrombin III 250 ug/ml); control 49.5 sec of 80.8 s. The clotting time, human fibrinogen 2.5 mg/ml, bovine thrombin 0.5 U/ml, ATIII (-); control 43.3 sec was 61.8 s.
